Measurements from patent US20110318308A1, “LIPOCALIN-TYPE PROSTAGLANDIN D2 SYNTHASE AS A BIOMARKER FOR LUNG CANCER PROGRESSION AND PROGNOSIS” (WINTHROP-UNIVERSITY HOSPITAL, priority 2010, published 2011).
“Also recorded” adds a separate entry of the source.

Legend:
A549 cells [1] = settings: cited from earlier work
A549 cells [2] = test: MTS cell proliferation assay, A549 cells with exogenously added L-PGDS; format: cell-based, human; settings: for A549 hyperproliferation: exogenously added L-PGDS, qualitative statement
Protocol: (§1) The effect of exogenously added L-PGDS on lung cell growth in culture was determined by MTS proliferation assay (Promega, Madison, Wis.). […] MLE cell proliferation was unaffected at L-PGDS concentrations up to […] but ceased at a concentration of 25 mg/l and above, as shown in FIG. 6.
(§2) Cell proliferation was measured with the use of a CellTiter 96 AQeous Non-Radioactive Cell Proliferation Assay (Promega, Madison, Wis.). Briefly, cells were plated in 96-well plates at a density of 500 cells/well in 200 μl of medium with 5% FBS. The cells were incubated at 37° C. in a humidified 5% CO2 atmosphere for the indicated time, after which 20 μl of combined MTS/PMS solution (Promega) was added per well. After a 2 h incubation at 37° C., absorbance at 490 nm was measured using an enzyme-linked immunosorbent assay (ELISA) plate reader. Data represent the average absorbance of three experiments each performed in triplicate.
The effect of exogenously added L-PGDS on A549 proliferation was observed.

[3] = system: mouse lung epithelial (MLE) cells; test: MTS cell proliferation assay, control mouse lung epithelial (MLE) cells; format: cell-based; settings: 18 h incubation
Protocol: as §1, §2

A549 cells [4] = test: PDGF-stimulated trans-well migration assay, A549 cells; format: cell-based, human; settings: for decrease in PGDF stimulated A549 migration: 5 h, trans-well inserts; for PDGF-stimulated migration of A549 cells: exogenously added L-PGDS, qualitative statement
Protocol: Migration assays were performed using 24-well cell culture inserts with 8.0 μm polyethylene terephthalate cyclopore membranes (Falcon) as detailed in Lundberg M S, Curto K A, Bilato C, Monticone R E, Crow M T. Regulation of vascular smooth muscle migration by mitogen-activated protein kinase and calcium/calmodulin-dependent protein kinase II signaling pathways. J Mol Cell Cardiol 1998; 30:2377-89. The underside of the membrane was coated with 100 μl rat tail collagen type I (50 μg/ml) for 18-20 h, washed and air-dried before each experiment. Cells were trypsinized and re-suspended in RPMI. Then 2×10^4 cells/250 μl were loaded into the cell culture inserts. The inserts were then added to the wells of 24-well plates which were filled with PDGF-BB diluted in RPMI with 0.1% BSA, and where indicated, L-PGDS was also added to this medium below the inserts.
The chambers were then incubated at 37° C. for 5 h to allow for cell migration. Afterwards, cells were completely removed from the upper side of the membrane with a cotton swab and the remaining migrated cells fixed and stained with Diff-Quik® solution (Dade Behring, Newark, Del.). Results are reported as the mean+/−SEM of five different fields, from three experiments, counted at 200× magnification.
The effect of L-PGDS on A549 migration was examined using trans-well inserts. FIG. 7 illustrates a 42% decrease in PGDF stimulated A549 migration in the presence of […] L-PGDS and a 77% decrease in the presence of […] L-PGDS. […] Cells were cultured and loaded into collagen coated […] cell culture inserts in the absence or presence of L-PGDS (25 or 50 μg/ml) as described above. Actual fields at 200× magnification are presented.

[5] = system: Lipocalin-type prostaglandin D2 synthase (EC=5.3.99.2); settings: alanine substitution in human L-PGDS; Zhou et al., FASEB J. 2010; cited from earlier work

CCCCC/C=C/C=C1/C(=O)C=C[C@@H]1C/C=C\CCCC(=O)O [15d-PGD2, 15-deoxy-Delta12,14-prostaglandin J2]
role in PGD2-induced apoptosis in A549 cells (A549 cells [1]; PGD2 metabolites): likely candidate for the principal apoptotic inducer

CCCCC[C@H](O)/C=C/[C@H]1C(=O)C[C@H](O)[C@@H]1C/C=C\CCCC(=O)O [PGD2, Prostaglandin D2]
A549 cell death / apoptosis (A549 cells [1]; A549 cells treated with PGD2): induces A549 cell death through the intrinsic apoptotic pathway | involvement of DP or CRTH2/DP2 in PGD2-induced A549 cell death (A549 cells [1]; DP and CRTH2/DP2 blocked with BWA868C and ramatroban): does not appear to involve either DP or CRTH2/DP2

B1: L-PGDS: Lipocalin-type prostaglandin D2 synthase protein, exogenously added to cultured cells (protein, UniProt P41222 23-190, looked up)
Prostaglandin-H2 D-isomerase: APEAQVSVQPNFQQDKFLGRWFSAGLASNSSWLREKKAALSMCKSVVAPATDGGLNLTSTFLRKNQCETRTMLLQPAGSLGSYSYRSPHWGSTYSVSVVETDYDQYALLYSQGSKGPGEDFRMATLYSRTQTPRAELKEKFTAFCKAQGFTEDTIVFLPQTDKCMTEQ
A549 cell proliferation (A549 cells [2]; L-PGDS 1-50 mg/l, 18 h incubation, MTS assay): marked inhibition | A549 hyper-proliferative growth (OD490nm) (A549 cells [2]; exogenously added L-PGDS 0, 10, 25, 50 μg/ml, proliferation determined after 2 h): dose responsive inhibition | A549 hyperproliferation (A549 cells [2]): suppresses | A549 hyperproliferation (A549 cells [2]; listed as LPGDS): suppress | L-PGDS concentration at which MLE cell proliferation ceased [3]: ≥ 25 mg/L | L-PGDS concentrations at which MLE cell proliferation was unaffected [3]: up to 10 mg/dl | decrease in PGDF stimulated A549 migration (A549 cells [4]; 25 μg/μl L-PGDS): 42% | decrease in PGDF stimulated A549 migration (A549 cells [4]; 50 μg/μl L-PGDS): 77% | A549 migration inhibition (A549 cells [4]; 100 μg/μl L-PGDS (data not shown)): no further increase in migration inhibition | PDGF-stimulated migration of A549 cells (A549 cells [4]): suppresses; also recorded: inhibits | PDGF-stimulated migration of A549 cells (A549 cells [4]; listed as LPGDS): suppress

B2: 59 K→A: human L-PGDS with residue 59 K changed to A (protein, UniProt P41222 23-190, looked up, variant K59A)
Prostaglandin-H2 D-isomerase: APEAQVSVQPNFQQDKFLGRWFSAGLASNSSWLREKAAALSMCKSVVAPATDGGLNLTSTFLRKNQCETRTMLLQPAGSLGSYSYRSPHWGSTYSVSVVETDYDQYALLYSQGSKGPGEDFRMATLYSRTQTPRAELKEKFTAFCKAQGFTEDTIVFLPQTDKCMTEQ
change of enzyme activity by sequence modification [5]: Increases enzyme activity about two-fold

B3: 64 M→A: human L-PGDS with residue 64 M changed to A (protein, UniProt P41222 23-190, looked up, variant M64A)
Prostaglandin-H2 D-isomerase: APEAQVSVQPNFQQDKFLGRWFSAGLASNSSWLREKKAALSACKSVVAPATDGGLNLTSTFLRKNQCETRTMLLQPAGSLGSYSYRSPHWGSTYSVSVVETDYDQYALLYSQGSKGPGEDFRMATLYSRTQTPRAELKEKFTAFCKAQGFTEDTIVFLPQTDKCMTEQ
change of enzyme activity by sequence modification [5]: Reduces enzyme activity almost ten-fold

B4: 79 L→A: human L-PGDS with residue 79 L changed to A (protein, UniProt P41222 23-190, looked up, variant L79A)
Prostaglandin-H2 D-isomerase: APEAQVSVQPNFQQDKFLGRWFSAGLASNSSWLREKKAALSMCKSVVAPATDGGLNATSTFLRKNQCETRTMLLQPAGSLGSYSYRSPHWGSTYSVSVVETDYDQYALLYSQGSKGPGEDFRMATLYSRTQTPRAELKEKFTAFCKAQGFTEDTIVFLPQTDKCMTEQ
change of enzyme activity by sequence modification [5]: Reduces enzyme activity over ten-fold

B5: 83 F→A: human L-PGDS with residue 83 F changed to A (protein, UniProt P41222 23-190, looked up, variant F83A)
Prostaglandin-H2 D-isomerase: APEAQVSVQPNFQQDKFLGRWFSAGLASNSSWLREKKAALSMCKSVVAPATDGGLNLTSTALRKNQCETRTMLLQPAGSLGSYSYRSPHWGSTYSVSVVETDYDQYALLYSQGSKGPGEDFRMATLYSRTQTPRAELKEKFTAFCKAQGFTEDTIVFLPQTDKCMTEQ
change of enzyme activity by sequence modification [5]: Reduces enzyme activity about five-fold

B6: 131 L→A: human L-PGDS with residue 131 L changed to A (protein, UniProt P41222 23-190, looked up, variant L131A)
Prostaglandin-H2 D-isomerase: APEAQVSVQPNFQQDKFLGRWFSAGLASNSSWLREKKAALSMCKSVVAPATDGGLNLTSTFLRKNQCETRTMLLQPAGSLGSYSYRSPHWGSTYSVSVVETDYDQYALAYSQGSKGPGEDFRMATLYSRTQTPRAELKEKFTAFCKAQGFTEDTIVFLPQTDKCMTEQ
change of enzyme activity by sequence modification [5]: Reduces enzyme activity almost ten-fold

B7: 149 Y→A: human L-PGDS with residue 149 Y changed to A (protein, UniProt P41222 23-190, looked up, variant Y149A)
Prostaglandin-H2 D-isomerase: APEAQVSVQPNFQQDKFLGRWFSAGLASNSSWLREKKAALSMCKSVVAPATDGGLNLTSTFLRKNQCETRTMLLQPAGSLGSYSYRSPHWGSTYSVSVVETDYDQYALLYSQGSKGPGEDFRMATLASRTQTPRAELKEKFTAFCKAQGFTEDTIVFLPQTDKCMTEQ
change of enzyme activity by sequence modification [5]: Increases enzyme activity about two-fold
